According to US20250090876A1 (published 2025):

Target: antigen target
Experiment: BLI

Kd: 11.6 nM
B1: ESS0102 5A (antibody, V domains shown)
VH: EVQLLESGGGLVQPGGSLRLSCAASGFSFSSYEMNWVRQAPGKGPEWISYISSGGGTIYYADSVRGRFTISRDNSNNTLYLQMNSLRPDDTAIYYCARDRGRKWLQLLFDSWGQGTLVTVSS
VL: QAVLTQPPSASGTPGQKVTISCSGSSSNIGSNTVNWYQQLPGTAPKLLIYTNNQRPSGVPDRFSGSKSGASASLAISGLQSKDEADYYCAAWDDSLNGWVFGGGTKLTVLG
